Measured values published in US20220185853A1, “AMANTADINE BINDING PROTEIN” (UNIVERSITY OF WASHINGTON, priority 2019, published 2022).
“Also recorded” adds a separate entry of the source.

Legend:
ABP = experiment: Circular dichroism temperature melt of ABP in the presence of amantadine; assay type: binding
Protocol: (§1) A synthetic gene encoding ABP was obtained and the protein expressed in E. coli.The design was expressed at high levels in the soluble fraction and was found by SEC-MALS to be a trimer in the presence and absence of amantadine (FIG. 2a). Interactions with amantadine were probed using thermofluor dye binding assay (differential scanning fluorimetry). […] As the protein was heated to 95° C., the fluorescence signal decreased, corresponding to protein aggregation at higher temperatures. […] In contrast, 2L6HC3_13, which has the same backbone parameters but lacks the amantadine binding site, is thermally stable by thermofluor assay, only starting to denature at ˜80° C. (FIG. 2b).
(§2) CD wavelength scans (260 to 195 nm) and temperature melts (25 to 95° C.) were measured using a JASCO™ J-1500 or an AVIV™ model 420 CD spectrometer. Temperature melts monitored […] at 222 nm and were carried out at a heating rate of 4° C/min. Protein samples were prepared at 0.25 mg/mL in phosphate buffered saline (PBS) pH 7.4 in a 0.1 cm cuvette.

[1] = system: ABP (amantadine-binding protein); experiment: Thermofluor dye binding assay (differential scanning fluorimetry), amantadine on ABP; settings: 1 mM amantadine, 5 μM protein, SYPRO orange, 25° C.
Protocol: as §1
(§3) Thermofluor assays were performed in SAXS buffer using a CFX96 Touch™ Real-Time PCR machine (Bio-Rad). Thermal stability assays were performed using 45 μL of 5 μM protein (with or without 1 mM amantadine) and 5 μL of freshly prepared 200X SYPRO™ orange (Thermo-Fisher) solution in SAXS buffer. The temperature was ramped from 25 ° C. to 95 ° C. in 0.5 ° C. increments with intervals of 5 s. Fluorescence was read in the FRET scanning mode. The average of three replicates of buffer+SYPRO orange solution (no protein control) was subtracted from the average of three replicates for each sample.

2L6HC3_13 = experiment: Thermofluor assay, amantadine on 2L6HC3_13 (scaffold lacking the amantadine binding site); settings: 1 mM amantadine
Protocol: as §1, §3

ABP_L6Q = experiment: Thermofluor assay, amantadine on ABP_L6Q; assay type: binding; settings: 1 mM amantadine, 5 μM protein, SYPRO orange, 25° C.
Protocol: (§4) As the protein was heated to 95° C., the fluorescence signal decreased, corresponding to protein aggregation at higher temperatures.
as §3

[2] = SEC-MALS oligomeric state; assay type: physicochemical; settings: in the presence and absence of amantadine
Protocol: as §1

[3] = Circular dichroism temperature melt of ABP; assay type: physicochemical; settings: CD at 25, 75, 95° C., without amantadine
Protocol: as §1, §2

[4] = Thermofluor melting curve of the proteins without ligand; assay type: physicochemical; settings: for initial fluorescence signal of the apo protein (thermofluor melting curve): 25° C., without amantadine
Protocol: as §1, §4, §3

[5] = target: the molecule itself; experiment: SEC-MALS; self-association of ABP subunits into a homo-trimer

## NC12CC3CC(CC(C3)C1)C2 [amantadine]
ABP; 1 mM amantadine
  loss in CD signal of ABP on heating to 95° C. in the presence of amantadine: not significantly altered
ABP; 5 mM amantadine, 25, 75, 95° C.
  thermal stability of ABP by CD spectrum in the presence of amantadine: not significantly affected
[1]
  initial fluorescence signal of ABP in the presence of amantadine, compared with apo-ABP: lowered; also recorded: much lower
2L6HC3_13
  effect of amantadine on the melting curve of 2L6HC3_13: no effect
ABP_L6Q
  initial fluorescence signal of ABP_L6Q in the presence of amantadine, compared with apo-ABP_L6Q: lowered; also recorded: much lower

B1: ABP: de novo designed homo-trimeric amantadine-binding protein, SEQ ID NO:1 (protein)
chain: DAQDKLKYLVKQLERALRELKKSLDELERSLEELEKNPSEDALVENNRLNVENNKIIVEVLRIILELAKASAKLA
modifications: homotrimer
[2]
  oligomeric state by SEC-MALS: trimer
[3]
  thermal stability of the all α-helical structure by CD spectrum: fairly stable up to 75 °C
[4]
  initial fluorescence signal of the apo protein (thermofluor melting curve): high

B2: 2L6HC3_13: previously characterized design; same backbone parameters as ABP but lacks the amantadine binding site (protein)
chain: GTKYELRRALEELEKALRELKKSLDELERSLEELEKNPSEDALVENNRLNVENNKIIVEVLRIIAEVLKINAKSD
[4]
  initial fluorescence signal of the apo protein (thermofluor melting curve): very low
[4]; thermofluor assay, 25 to 95° C.
  temperature at which the protein starts to denature (thermofluor): ~80 °C

B3: ABP (amantadine-binding protein) (designed binder)
chain: GSHMGDAQDKLKYLVKQLERALRELKKSLDELERSLEELEKNPSEDALVENNRLNVENNKIIVEVLRIILELAKASAKLA
notes: The measurement row with m1 as both partners means self-association of ABP subunits
[5]
  binding result: binds
